In the supplement of paper PMC5998384 one finds melting temperature and thermal stability score data, which are given here for 13 substances.

For series [1], the system named is HeLa Kyoto. Put plainly: melting temperature (median over replicates), in situ; higher = more thermally stable.
For series [2], the system named is HeLa Kyoto. Briefly: thermal stability score vs G1/S (z-score of summed log2 fold changes over temperatures); higher = more thermally stable than in G1/S.
The mark [3] stands for this setting: cell cycle stage: early G1 (4.5 h after nocodazole release).
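For melting temperature (median over replicates), in situ in this document: HeLa Kyoto cells synchronized by double thymidine or nocodazole block, proteins quantified by TMT10plex mass spectrometry, three independent biological replicates.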
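For thermal stability score vs G1/S (z-score of summed log2 fold changes over temperatures) in this document: synchronized HeLa Kyoto cells, proteins quantified by TMT10plex mass spectrometry, three biological replicates, mitosis taken 0.5 h after nocodazole release, G1/S directly after double thymidine block.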

LSM5, sequence (chain, as listed by the source): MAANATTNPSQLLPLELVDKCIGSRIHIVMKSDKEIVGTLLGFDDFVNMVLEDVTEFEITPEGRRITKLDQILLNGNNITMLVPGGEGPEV

As for LSM5, the melting temperature in the series on HeLa Kyoto [1] (cell cycle stage: G1/S) is 55.9 °C; in the series on HeLa Kyoto [1] (cell cycle stage: mitosis) it was 52.9 °C. The thermal stability score with HeLa Kyoto [2] (setting [3]) was -2.66; in the series on HeLa Kyoto [2] (cell cycle stage: mitosis), -1.99.
In the series with HeLa Kyoto [1] (cell cycle stage: mitosis), “MAALGGDGLRLLSVSRPERPPESAALGGLGPGLCCWVSVFSCLSLACSYVGSLYVWKSELPRDHPAVIKRRFTSVLVVSSLSPLCVLLWRELTGIQPGTSLLTLMGFRLEGIFPAALLPLLLTMILFLGPLMQLSMDCPCDLADGLKVVLAPRSWARCLTDMRWLRNQVIAPLTEELVFRACMLPMLAPCMGLGPAVFTCPLFFGVAHFHHIIEQLRFRQSSVGNIFLSAAFQFSYTAVFGAYTAFLFIRTGHLIGPVLCHSFCNYMGFPAVCAALEHPQRRPLLAGYALGVGLFLLLLQPLTDPKLYGSLPLCVLLERAGDSEAPLCS [RCE1]” gave a melting temperature of 55.3 °C. Besides, the thermal stability score is -0.209 in the series with HeLa Kyoto [2] (setting [3]) and -0.247 with HeLa Kyoto [2] (cell cycle stage: mitosis).
“MAEFPSKVSTRTSSPAQGAEASVSALRPDLGFVRSRLGALMLLQLVLGLLVWALIADTPYHLYPAYGWVMFVAVFLWLVTIVLFNLYLFQLHMKLYMVPWPLVLMIFNISATVLYITAFIACSAAVDLTSLRGTRPYNQRAAASFFACLVMIAYGVSAFFSYQAWRGVGSNAATSQMAGGYA [PLLP]”: the melting temperature in the series with HeLa Kyoto [1] (cell cycle stage: G1/S) is 56.7 °C; with HeLa Kyoto [1] (cell cycle stage: mitosis), 58.5 °C. The thermal stability score in the series on HeLa Kyoto [2] (setting [3]) is -2.71; with HeLa Kyoto [2] (cell cycle stage: mitosis) it was -3.25.
As to “MANAEVSVPVGDVVVVPTEGNEGENPEDTKTQVILQLQPVQQGLFIDGHFYNRIYEAGSENNTAVVAVETHTIHKIEEGIDTGTIEANEDMEIAYPITCGESKAILLWKKFVCPGINVKCVKFNDQLISPKHFVHLAGKSTLKDWKRAIRLGGIMLRKMMDSGQIDFYQHDKVCSNTCRSTKFDLLISSARAPVPGQQTSVVQTPTSADGSITQIAISEESMEEAGLEWNSALTAAVTMATEEGVKKDSEEISEDTLMFWKGIADVGLMEEVVCNIQKEIEELLRGVQQRLIQAPFQVTDAAVLNNVAHTFGLMDTVKKVLDNRRNQVEQGEEQFLYTLTDLERQLEEQKKQGQDHRLKSQTVQNVVLMPVSTPKPPKRPRLQRPASTTVLSPSPPVQQPQFTVISPITITPVGQSFSMGNIPVATLSQGSSPVTVHTLPSGPQLFRYATVVSSAKSSSPDTVTIHPSSSLALLSSTAMQDGSTLGNMTTMVSPVELVAMESGLTSAIQAVESTSEDGQTIIEIDPAPDPEAEDTEGKAVILETELRTEEKVVAEMEEHQHQVHNVEIVVLED [GMEB1]”, the melting temperature in the series with HeLa Kyoto [1] (cell cycle stage: G1/S) stood at 49 °C. Further, the thermal stability score in the series with HeLa Kyoto [2] (setting [3]) came out at 0.789; with HeLa Kyoto [2] (cell cycle stage: mitosis), 2.68.
Turning to “MEAVVNLYQEVMKHADPRIQGYPLMGSPLLMTSILLTYVYFVLSLGPRIMANRKPFQLRGFMIVYNFSLVALSLYIVYEFLMSGWLSTYTWRCDPVDYSNSPEALRMVRVAWLFLFSKFIELMDTVIFILRKKDGQVTFLHVFHHSVLPWSWWWGVKIAPGGMGSFHAMINSSVHVIMYLYYGLSAFGPVAQPYLWWKKHMTAIQLIQFVLVSLHISQYYFMSSCNYQYPVIIHLIWMYGTIFFMLFSNFWYHSYTKGKRLPRALQQNGAPGIAKVKAN [ELOVL1]”, the melting temperature in the series on HeLa Kyoto [1] (cell cycle stage: G1/S) is 52.8 °C; with HeLa Kyoto [1] (cell cycle stage: mitosis) it was 52.4 °C. Also, the thermal stability score in the series on HeLa Kyoto [2] (setting [3]) stood at 2.04; with HeLa Kyoto [2] (cell cycle stage: mitosis) it was 1.9.
For the substance “MESALAVPRLPPHDPGTPVLSVVDMHTGGEPLRIVLAGCPEVSGPTLLAKRRYMRQHLDHVRRRLMFEPRGHRDMYGAVLVPSELPDAHLGVLFLHNEGYSSMCGHAVLALGRFALDFGLVPAPPAGTREARVNIHCPCGLVTAFVACEDGRSHGPVRFHSVPAFVLATDLMVDVPGHGKVMVDIAYGGAFYAFVTAEKLGLDICSAKTRDLVDAASAVTEAVKAQFKINHPDSEDLAFLYGTILTDGKDAYTKEPTTNICVFADEQVDRSPTGSGVTARIALQYHKGLLELNQMRAFKSSATGSVFTGKAVREAKCGDFKAVIVEVSGQAHYTGTASFIIEDDDPLRDGFLLK [L3HYPDH]”, the melting temperature was found to be 55.6 °C with HeLa Kyoto [1] (cell cycle stage: G1/S) and 54.4 °C in the series on HeLa Kyoto [1] (cell cycle stage: mitosis). In addition, the values for the thermal stability score in the series on HeLa Kyoto [2] (setting [3]) and in the series on HeLa Kyoto [2] (cell cycle stage: mitosis) were 0.886 and 0.62, respectively.
Substance “MESQKEARTLQEPVARPSGASSSQTPNDKERREGGAVPAAAALGAEADDDSADGLWELPVEPAERRPECTRCSRPQKVCLCPFLPAHPLHISTHLYIIQHPAEENKVLRTVPLLAACLPQDKCKVKIGRRFSEERDPELSTVCRKSGTLILYPGAEAANLEEFILDSPVYPSTIIIIDGTWSQAKDIFYKNSLFRHPKQVQLKTSISSQYVIRMQPTNRCLSTLECAAVALSILEKNNYIQETLLRPLQALCSFQLQHGAQIRLSKEHLLKNGLYPKPMPKNKRKLRKMELLMNSVKI [DTWD2]” returned a melting temperature with HeLa Kyoto [1] (cell cycle stage: mitosis) of 51.2 °C. Moreover, the thermal stability score was 0.37 in the series with HeLa Kyoto [2] (setting [3]) and 0.624 in the series on HeLa Kyoto [2] (cell cycle stage: mitosis).
With “METDLNSQDRKDLDKFIKFFALKTVQVIVQARLGEKICTRSSSSPTGSDWFNLAIKDIPEVTHEAKKALAGQLPAVGRSMCVEISLKTSEGDSMELEIWCLEMNEKCDKEIKVSYTVYNRLSLLLKSLLAITRVTPAYRLSRKQGHEYVILYRIYFGEVQLSGLGEGFQTVRVGTVGTPVGTITLSCAYRINLAFMSTRQFERTPPIMGIIIDHFVDRPYPSSSPMHPCNYRTAGEDTGVIYPSVEDSQEVCTTSFSTSPPSQLSSSRLSYQPAALGVGSADLAYPVVFAAGLNATHPHQLMVPGKEGGVPLAPNQPVHGTQADQERLATCTPSDRTHCAATPSSSEDTETVSNSSEGRASPHDVLETIFVRKVGAFVNKPINQVTLTSLDIPFAMFAPKNLELEDTDPMVNPPDSPETESPLQGSLHSDGSSGGSSGNTHDDFVMIDFKPAFSKDDILPMDLGTFYREFQNPPQLSSLSIDIGAQSMAEDLDSLPEKLAVHEKNVREFDAFVETLQ [ATG13]”, the melting temperature in the series with HeLa Kyoto [1] (cell cycle stage: G1/S) turned out to be 51.7 °C; with HeLa Kyoto [1] (cell cycle stage: mitosis), 52.2 °C. Besides, the thermal stability score in the series with HeLa Kyoto [2] (setting [3]) is 0.178; in the series with HeLa Kyoto [2] (cell cycle stage: mitosis), -1.05.
Turning to “MEVVEAAAAQLETLKFNGTDFGVGEGPAAPSPGSAPVPGTQPPLQSFEGSPDAGQTVEVKPAGEQPLQPVLNAVAAGTPAPQPQPPAESPACGDCVTSPGAAEPARAPDSLETSDSDSDSDSETDSDSSSSSSSSSSSSSSSSSSCISLPPVLSDGDDDLQIEKENKNFPLKTKDELLLNELPSVEELTIILPEDIELKPLGMVSSIIEQLVIIESMTNLPPVNEETVIFKSDRQAAGKIFEIFGPVAHPFYVLRFNSSDHIESKGIKIKETMYFAPSMKDFTQYIFTEKLKQDKGSDASWKNDQEPPPEALDFSDDEKEKEAKQRKKSQIQGRKKLKSEFNEPGEDFTEVHQNWNAHSSASEHAKGYRNREFTRGFSRARYPRSCHGRPPPQHFYNSEHMVSQETSGFPSQRQNNPIMPQYPFPLPVFDMHNFPLRPPPPPPPPPVNMGWATPNMAAHPLLNLPYSLPPPPPPPPLPPPPSSGDSNSHFGPYY [NAF1]”, the results for the melting temperature with HeLa Kyoto [1] (cell cycle stage: G1/S) and in the series with HeLa Kyoto [1] (cell cycle stage: mitosis) were 52 °C and 52.1 °C, respectively. For the same substance, the thermal stability score in the series with HeLa Kyoto [2] (setting [3]) is 0.0445; with HeLa Kyoto [2] (cell cycle stage: mitosis) it was -1.83.
Regarding “MNSGVAMKYGNDSSAELSELHSAALASLKGDIVELNKRLQQTERERDLLEKKLAKAQCEQSHLMREHEDVQERTTLRYEERITELHSVIAELNKKIDRLQGTTIREEDEYSELRSELSQSQHEVNEDSRSMDQDQTSVSIPENQSTMVTADMDNCSDLNSELQRVLTGLENVVCGRKKSSCSLSVAEVDKHIEQLTTASEHCDLAIKTVEEIEGVLGRDLYPNLAEERSRWEKELAGLREENESLTAMLCSKEEELNRTKATMNAIREERDRLRRRVRELQTRLQSVQATGPSSPGRLTSTNRPINPSTGELSTSSSSNDIPIAKIAERVKLSKTRSESSSSDRPVLGSEISSIGVSSSVAEHLAHSLQDCSNIQEIFQTLYSHGSAISESKIREFEVETERLNSRIEHLKSQNDLLTITLEECKSNAERMSMLVGKYESNATALRLALQYSEQCIEAYELLLALAESEQSLILGQFRAAGVGSSPGDQSGDENITQMLKRAHDCRKTAENAAKALLMKLDGSCGGAFAVAGCSVQPWESLSSNSHTSTTSSTASSCDTEFTKEDEQRLKDYIQQLKNDRAAVKLTMLELESIHIDPLSYDVKPRGDSQRLDLENAVLMQELMAMKEEMAELKAQLYLLEKEKKALELKLSTREAQEQAYLVHIEHLKSEVEEQKEQRMRSLSSTSSGSKDKPGKECADAASPALSLAELRTTCSENELAAEFTNAIRREKKLKARVQELVSALERLTKSSEIRHQQSAEFVNDLKRANSNLVAAYEKAKKKHQNKLKKLESQMMAMVERHETQVRMLKQRIALLEEENSRPHTNETSL [MCC]”, the thermal stability score in the series on HeLa Kyoto [2] (setting [3]) is 0.157; with HeLa Kyoto [2] (cell cycle stage: mitosis) it was -0.438.
As to “MRRGERRDAGGPRPESPVPAGRASLEEPPDGPSAGQATGPGEGRRSTESEVYDDGTNTFFWRAHTLTVLFILTCTLGYVTLLEETPQDTAYNTKRGIVASILVFLCFGVTQAKDGPFSRPHPAYWRFWLCVSVVYELFLIFILFQTVQDGRQFLKYVDPKLGVPLPERDYGGNCLIYDPDNETDPFHNIWDKLDGFVPAHFLGWYLKTLMIRDWWMCMIISVMFEFLEYSLEHQLPNFSECWWDHWIMDVLVCNGLGIYCGMKTLEWLSLKTYKWQGLWNIPTYKGKMKRIAFQFTPYSWVRFEWKPASSLRRWLAVCGIILVFLLAELNTFYLKFVLWMPPEHYLVLLRLVFFVNVGGVAMREIYDFMDDPKPHKKLGPQAWLVAAITATELLIVVKYDPHTLTLSLPFYISQCWTLGSVLALTWTVWRFFLRDITLRYKETRWQKWQNKDDQGSTVGNGDQHPLGLDEDLLGPGVAEGEGAPTPN [PTDSS2]”, the thermal stability score with HeLa Kyoto [2] (setting [3]) is -0.906; with HeLa Kyoto [2] (cell cycle stage: mitosis), -3.56.
The corresponding values for “MSGGDTRAAIARPRMAAAHGPVAPSSPEQVTLLPVQRSFFLPPFSGATPSTSLAESVLKVWHGAYNSGLLPQLMAQHSLAMAQNGAVPSEATKRDQNLKRGNWGNQIEFVLTSVGYAVGLGNVWRFPYLCYRNGGGAFMFPYFIMLIFCGIPLFFMELSFGQFASQGCLGVWRISPMFKGVGYGMMVVSTYIGIYYNVVICIAFYYFFSSMTHVLPWAYCNNPWNTHDCAGVLDASNLTNGSRPAALPSNLSHLLNHSLQRTSPSEEYWRLYVLKLSDDIGNFGEVRLPLLGCLGVSWLVVFLCLIRGVKSSGKVVYFTATFPYVVLTILFVRGVTLEGAFDGIMYYLTPQWDKILEAKVWGDAASQIFYSLGCAWGGLITMASYNKFHNNCYRDSVIISITNCATSVYAGFVIFSILGFMANHLGVDVSRVADHGPGLAFVAYPEALTLLPISPLWSLLFFFMLILLGLGTQFCLLETLVTAIVDEVGNEWILQKKTYVTLGVAVAGFLLGIPLTSQAGIYWLLLMDNYAASFSLVVISCIMCVAIMYIYGHRNYFQDIQMMLGFPPPLFFQICWRFVSPAIIFFILVFTVIQYQPITYNHYQYPGWAVAIGFLMALSSVLCIPLYAMFRLCRTDGDTLLQRLKNATKPSRDWGPALLEHRTGRYAPTIAPSPEDGFEVQPLHPDKAQIPIVGSNGSSRLQDSRI [SLC6A9]” are -0.03 and 1.01.
On to SPG11, for which the results for the thermal stability score with HeLa Kyoto [2] (setting [3]) and with HeLa Kyoto [2] (cell cycle stage: mitosis) were -0.413 and -0.459, respectively.
